Measurements: the supplement of paper PMC5998384

Key:
[1] = tested on: HeLa Kyoto; assay: thermal stability score vs G1/S (z-score of summed log2 fold changes over temperatures); higher = more thermally stable than in G1/S
[2] = tested on: HeLa Kyoto; assay: solubility change mitosis vs G1/S (difference of NP-40 vs SDS log2 ratios) (log2 ratio difference); higher = more soluble in mitosis
[3] = tested on: HeLa Kyoto; assay: melting temperature (median over replicates), in situ; higher = more thermally stable
[4] = tested on: HeLa Kyoto; assay: solubility in G1/S (NP-40 vs SDS abundance) (log2 ratio); higher = more soluble; conditions: cell cycle stage: G1/S
[5] = cell cycle stage: early G1 (4.5 h after nocodazole release)
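Throughout, for melting temperature (median over replicates), in situ: HeLa Kyoto cells synchronized by double thymidine or nocodazole block, proteins quantified by TMT10plex mass spectrometry, three independent biological replicates.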
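Throughout, for solubility change mitosis vs G1/S (difference of NP-40 vs SDS log2 ratios): synchronized HeLa Kyoto cells (double thymidine block for G1/S, nocodazole release for mitosis), protein amounts in NP-40 versus SDS lysates quantified by mass spectrometry, three biological replicates.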
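Throughout, for solubility in G1/S (NP-40 vs SDS abundance): HeLa Kyoto cells arrested at G1/S by double thymidine block, proteins quantified by TMT10plex mass spectrometry in mild NP-40 versus SDS extracts, three biological replicates.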
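Throughout, for thermal stability score vs G1/S (z-score of summed log2 fold changes over temperatures): synchronized HeLa Kyoto cells, proteins quantified by TMT10plex mass spectrometry, three biological replicates, mitosis taken 0.5 h after nocodazole release, G1/S directly after double thymidine block.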

Sequence of IDH3B (chain, as listed by the source): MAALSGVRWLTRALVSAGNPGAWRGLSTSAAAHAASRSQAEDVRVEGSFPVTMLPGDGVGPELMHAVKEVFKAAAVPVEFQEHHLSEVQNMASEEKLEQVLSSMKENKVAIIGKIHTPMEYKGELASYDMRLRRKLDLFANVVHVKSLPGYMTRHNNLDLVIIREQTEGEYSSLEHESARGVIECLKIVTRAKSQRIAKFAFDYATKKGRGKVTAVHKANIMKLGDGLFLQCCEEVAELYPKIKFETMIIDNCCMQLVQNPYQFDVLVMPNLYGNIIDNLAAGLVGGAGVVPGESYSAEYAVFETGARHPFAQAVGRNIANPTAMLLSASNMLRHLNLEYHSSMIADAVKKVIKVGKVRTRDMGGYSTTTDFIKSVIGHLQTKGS
Sequence of ZFR (chain, as listed by the source): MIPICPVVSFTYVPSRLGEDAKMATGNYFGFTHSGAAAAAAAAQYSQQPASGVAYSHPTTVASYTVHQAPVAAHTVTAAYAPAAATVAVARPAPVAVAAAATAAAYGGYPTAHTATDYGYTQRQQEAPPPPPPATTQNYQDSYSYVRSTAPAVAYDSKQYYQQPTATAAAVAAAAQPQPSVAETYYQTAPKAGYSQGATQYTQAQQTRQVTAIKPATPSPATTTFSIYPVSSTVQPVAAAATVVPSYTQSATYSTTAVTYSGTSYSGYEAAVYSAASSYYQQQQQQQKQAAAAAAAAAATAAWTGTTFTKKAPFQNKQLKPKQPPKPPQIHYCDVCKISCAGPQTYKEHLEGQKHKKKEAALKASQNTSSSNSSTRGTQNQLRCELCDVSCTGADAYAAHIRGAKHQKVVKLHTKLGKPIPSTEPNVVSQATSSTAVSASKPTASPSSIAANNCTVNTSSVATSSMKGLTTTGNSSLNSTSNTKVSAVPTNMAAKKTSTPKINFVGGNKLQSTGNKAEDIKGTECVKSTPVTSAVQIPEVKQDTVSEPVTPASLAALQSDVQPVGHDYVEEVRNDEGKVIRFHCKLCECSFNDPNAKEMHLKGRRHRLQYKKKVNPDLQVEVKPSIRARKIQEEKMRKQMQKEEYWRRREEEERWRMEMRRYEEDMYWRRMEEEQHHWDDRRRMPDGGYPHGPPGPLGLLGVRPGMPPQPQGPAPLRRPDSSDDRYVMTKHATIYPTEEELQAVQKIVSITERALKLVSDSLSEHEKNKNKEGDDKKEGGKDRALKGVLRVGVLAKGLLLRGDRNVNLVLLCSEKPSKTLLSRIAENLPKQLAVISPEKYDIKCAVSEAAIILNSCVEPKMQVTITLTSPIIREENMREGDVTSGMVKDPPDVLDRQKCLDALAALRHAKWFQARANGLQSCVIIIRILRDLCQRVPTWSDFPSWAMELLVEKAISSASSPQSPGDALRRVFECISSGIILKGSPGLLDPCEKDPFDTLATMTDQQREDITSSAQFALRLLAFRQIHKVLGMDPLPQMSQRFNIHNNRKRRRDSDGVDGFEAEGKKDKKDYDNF

Substance	thermal stability score [1, 5]	thermal stability score ([1]; cell cycle stage: mitosis)	solubility change mitosis (log2) [2]	melting temperature ([3]; cell cycle stage: G1/S)	melting temperature ([3]; cell cycle stage: mitosis)	solubility in G1/S (log2) [4]
MAERGGDGGESERFNPGELRMAQQQALRFRGPAPPPNAVMRGPPPLMRPPPPFGMMRGPPPPPRPPFGRPPFDPNMPPMPPPGGIPPPMGPPHLQRPPFMPPPMSSMPPPPGMMFPPGMPPVTAPGTPALPPTEEIWVENKTPDGKVYYYNARTRESAWTKPDGVKVIQQSELTPMLAAQAQVQAQAQAQAQAQAQAQAQAQAQAQAQAQAQAQAQAQAQAQAQAQAQAQAQAQAQAQAQAQVQAQVQAQVQAQAVGASTPTTSSPAPAVSTSTSSSTPSSTTSTTTTATSVAQTVSTPTTQDQTPSSAVSVATPTVSVSTPAPTATPVQTVPQPHPQTLPPAVPHSVPQPTTAIPAFPPVMVPPFRVPLPGMPIPLPGVAMMQIVSCPYVKTVATTKTGVLPGMAPPIVPMIHPQVAIAASPATLAGATAVSEWTEYKTADGKTYYYNNRTLESTWEKPQELKEKEKLEEKIKEPIKEPSEEPLPMETEEEDPKEEPIKEIKEEPKEEEMTEEEKAAQKAKPVATAPIPGTPWCVVWTGDERVFFYNPTTRLSMWDRPDDLIGRADVDKIIQEPPHKKGMEELKKLRHPTPTMLSIQKWQFSMSAIKEEQELMEEINEDEPVKAKKRKRDDNKDIDSEKEAAMEAEIKAARERAIVPLEARMKQFKDMLLERGVSAFSTWEKELHKIVFDPRYLLLNPKERKQVFDQYVKTRAEEERREKKNKIMQAKEDFKKMMEEAKFNPRATFSEFAAKHAKDSRFKAIEKMKDREALFNEFVAAARKKEKEDSKTRGEKIKSDFFELLSNHHLDSQSRWSKVKDKVESDPRYKAVDSSSMREDLFKQYIEKIAKNLDSEKEKELERQARIEASLREREREVQKARSEQTKEIDREREQHKREEAIQNFKALLSDMVRSSDVSWSDTRRTLRKDHRWESGSLLEREEKEKLFNEHIEALTKKKREHFRQLLDETSAITLTSTWKEVKKIIKEDPRCIKFSSSDRKKQREFEEYIRDKYITAKADFRTLLKETKFITYRSKKLIQESDQHLKDVEKILQNDKRYLVLDCVPEERRKLIVAYVDDLDRRGPPPPPTASEPTRRSTK [TCERG1]	2.7	5.16	-0.0317	48.5 °C	48.8 °C	0.0535
MASSAQSGGSSGGPAVPTVQRGIIKMVLSGCAIIVRGQPRGGPPPERQINLSNIRAGNLARRAAATQPDAKDTPDEPWAFPAREFLRKKLIGKEVCFTIENKTPQGREYGMIYLGKDTNGENIAESLVAEGLATRREGMRANNPEQNRLSECEEQAKAAKKGMWSEGNGSHTIRDLKYTIENPRHFVDSHHQKPVNAIIEHVRDGSVVRALLLPDYYLVTVMLSGIKCPTFRREADGSETPEPFAAEAKFFTESRLLQRDVQIILESCHNQNILGTILHPNGNITELLLKEGFARCVDWSIAVYTRGAEKLRAAERFAKERRLRIWRDYVAPTANLDQKDKQFVAKVMQVLNADAIVVKLNSGDYKTIHLSSIRPPRLEGENTQDKNKKLRPLYDIPYMFEAREFLRKKLIGKKVNVTVDYIRPASPATETVPAFSERTCATVTIGGINIAEALVSKGLATVIRYRQDDDQRSSHYDELLAAEARAIKNGKGLHSKKEVPIHRVADISGDTQKAKQFLPFLQRAGRSEAVVEYVFSGSRLKLYLPKETCLITFLLAGIECPRGARNLPGLVQEGEPFSEEATLFTKELVLQREVEVEVESMDKAGNFIGWLHIDGANLSVLLVEHALSKVHFTAERSSYYKSLLSAEEAAKQKKEKVWAHYEEQPVEEVMPVLEEKERSASYKPVFVTEITDDLHFYVQDVETGTQLEKLMENMRNDIASHPPVEGSYAPRRGEFCIAKFVDGEWYRARVEKVESPAKIHVFYIDYGNREVLPSTRLGTLSPAFSTRVLPAQATEYAFAFIQVPQDDDARTDAVDSVVRDIQNTQCLLNVEHLSAGCPHVTLQFADSKGDVGLGLVKEGLVMVEVRKEKQFQKVITEYLNAQESAKSARLNLWRYGDFRADDADEFGYSR [SND1]	0.34	3.69	0.0116	47.9 °C	48.1 °C	-0.0826
IDH3B	-1.39	-2	-0.00994	54.2 °C	53.5 °C	0.298
MAVAGAVSGEPLVHWCTQQLRKTFGLDVSEEIIQYVLSIESAEEIREYVTDLLQGNEGKKGQFIEELITKWQKNDQELISDPLQQCFKKDEILDGQKSGDHLKRGRKKGRNRQEVPAFTEPDTTAEVKTPFDLAKAQENSNSVKKKTKFVNLYTREGQDRLAVLLPGRHPCDCLGQKHKLINNCLICGRIVCEQEGSGPCLFCGTLVCTHEEQDILQRDSNKSQKLLKKLMSGVENSGKVDISTKDLLPHQELRIKSGLEKAIKHKDKLLEFDRTSIRRTQVIDDESDYFASDSNQWLSKLERETLQKREEELRELRHASRLSKKVTIDFAGRKILEEENSLAEYHSRLDETIQAIANGTLNQPLTKLDRSSEEPLGVLVNPNMYQSPPQWVDHTGAASQKKAFRSSGFGLEFNSFQHQLRIQDQEFQEGFDGGWCLSVHQPWASLLVRGIKRVEGRSWYTPHRGRLWIAATAKKPSPQEVSELQATYRLLRGKDVEFPNDYPSGCLLGCVDLIDCLSQKQFKEQFPDISQESDSPFVFICKNPQEMVVKFPIKGNPKIWKLDSKIHQGAKKGLMKQNKAV [TRIP4]	1.04	0.759	-0.0219	50.6 °C	49.4 °C	-0.111
APOB	-3.15	-0.312	0.0239	57.6 °C	55.5 °C	-0.404
ZFR	0.655	-0.928	0.103	52.4 °C	51.9 °C	-0.167
MGTPGEGLGRCSHALIRGVPESLASGEGAGAGLPALDLAKAQREHGVLGGKLRQRLGLQLLELPPEESLPLGPLLGDTAVIQGDTALITRPWSPARRPEVDGVRKALQDLGLRIVEIGDENATLDGTDVLFTGREFFVGLSKWTNHRGAEIVADTFRDFAVSTVPVSGPSHLRGLCGMGGPRTVVAGSSDAAQKAVRAMAVLTDHPYASLTLPDDAAADCLFLRPGLPGVPPFLLHRGGGDLPNSQEALQKLSDVTLVPVSCSELEKAGAGLSSLCLVLSTRPHS [DDAH2]	0.156	0.00237	0.0772	55.2 °C	54 °C	0.479
MRLREPLLSGSAAMPGASLQRACRLLVAVCALHLGVTLVYYLAGRDLSRLPQLVGVSTPLQGGSNSAAAIGQSSGELRTGGARPPPPLGASSQPRPGGDSSPVVDSGPGPASNLTSVPVPHTTALSLPACPEESPLLVGPMLIEFNMPVDLELVAKQNPNVKMGGRYAPRDCVSPHKVAIIIPFRNRQEHLKYWLYYLHPVLQRQQLDYGIYVINQAGDTIFNRAKLLNVGFQEALKDYDYTCFVFSDVDLIPMNDHNAYRCFSQPRHISVAMDKFGFSLPYVQYFGGVSALSKQQFLTINGFPNNYWGWGGEDDDIFNRLVFRGMSISRPNAVVGRCRMIRHSRDKKNEPNPQRFDRIAHTKETMLSDGLNSLTYQVLDVQRYPLYTQITVDIGTPS [B4GALT1]	-2.25	-1.74	0.0769	53.1 °C	54 °C	-0.0686
MASIWVGHRGTVRDYPDFSPSVDAEAIQKAIRGIGTDEKMLISILTERSNAQRQLIVKEYQAAYGKELKDDLKGDLSGHFEHLMVALVTPPAVFDAKQLKKSMKGAGTNEDALIEILTTRTSRQMKDISQAYYTVYKKSLGDDISSETSGDFRKALLTLADGRRDESLKVDEHLAKQDAQILYKAGENRWGTDEDKFTEILCLRSFPQLKLTFDEYRNISQKDIVDSIKGELSGHFEDLLLAIVNCVRNTPAFLAERLHRALKGIGTDEFTLNRIMVSRSEIDLLDIRTEFKKHYGYSLYSAIKSDTSGDYEITLLKICGGDD [ANXA3]	-0.635	-1.21	-0.0404	52.3 °C	52.2 °C	0.2
EIF2AK4	0.686	0.568	-0.0694	50.8 °C	50.3 °C	-0.218
MLRFLAPRLLSLQGRTARYSSAAALPSPILNPDIPYNQLFINNEWQDAVSKKTFPTVNPTTGEVIGHVAEGDRADVDRAVKAAREAFRLGSPWRRMDASERGRLLNRLADLVERDRVYLASLETLDNGKPFQESYALDLDEVIKVYRYFAGWADKWHGKTIPMDGQHFCFTRHEPVGVCGQIIPWNFPLVMQGWKLAPALATGNTVVMKVAEQTPLSALYLASLIKEAGFPPGVVNIITGYGPTAGAAIAQHVDVDKVAFTGSTEVGHLIQKAAGDSNLKRVTLELGGKSPSIVLADADMEHAVEQCHEALFFNMGQCCCAGSRTFVEESIYNEFLERTVEKAKQRKVGNPFELDTQQGPQVDKEQFERVLGYIQLGQKEGAKLLCGGERFGERGFFIKPTVFGGVQDDMRIAKEEIFGPVQPLFKFKKIEEVVERANNTRYGLAAAVFTRDLDKAMYFTQALQAGTVWVNTYNIVTCHTPFGGFKESGNGRELGEDGLKAYTEVKTVTIKVPQKNS [ALDH1B1]	-1.97	-1.54	-0.0523	52.6 °C	52.8 °C	0.229
MNWNKGGPGTKRGFGFGGFAISAGKKEEPKLPQQSHSAFGATSSSSGFGKSAPPQLPSFYKIGSKRANFDEENAYFEDEEEDSSNVDLPYIPAENSPTRQQFHSKPVDSDSDDDPLEAFMAEVEDQAARDMKRLEEKDKERKNVKGIRDDIEEEDDQEAYFRYMAENPTAGVVQEEEEDNLEYDSDGNPIAPTKKIIDPLPPIDHSEIDYPPFEKNFYNEHEEITNLTPQQLIDLRHKLNLRVSGAAPPRPGSSFAHFGFDEQLMHQIRKSEYTQPTPIQCQGVPVALSGRDMIGIAKTGSGKTAAFIWPMLIHIMDQKELEPGDGPIAVIVCPTRELCQQIHAECKRFGKAYNLRSVAVYGGGSMWEQAKALQEGAEIVVCTPGRLIDHVKKKATNLQRVSYLVFDEADRMFDMGFEYQVRSIASHVRPDRQTLLFSATFRKKIEKLARDILIDPIRVVQGDIGEANEDVTQIVEILHSGPSKWNWLTRRLVEFTSSGSVLLFVTKKANAEELANNLKQEGHNLGLLHGDMDQSERNKVISDFKKKDIPVLVATDVAARGLDIPSIKTVINYDVARDIDTHTHRIGRTGRAGEKGVAYTLLTPKDSNFAGDLVRNLEGANQHVSKELLDLAMQNAWFRKSRFKGGKGKKLNIGGGGLGYRERPGLGSENMDRGNNNVMSNYEAYKPSTGAMGDRLTAMKAAFQSQYKSHFVAASLSNQKAGSSAAGASGWTSAGSLNSVPTNSAQQGHNSPDSPVTSAAKGIPGFGNTGNISGAPVTYPSAGAQGVNNTASGNNSREGTGGSNGKRERYTENRGSSRHSHGETGNRHSDSPRHGDGGRHGDGYRHPESSSRHTDGHRHGENRHGGSAGRHGENRGANDGRNGESRKEAFNRESKMEPKMEPKVDSSKMDKVDSKTDKTADGFAVPEPPKRKKSRWDS [DDX42]	3.02	7.75	0.145	47.2 °C	48.8 °C	-0.252
MAKTYDYLFKLLLIGDSGVGKTCLLFRFSEDAFNTTFISTIGIDFKIRTIELDGKKIKLQIWDTAGQERFRTITTAYYRGAMGIMLVYDITNEKSFDNIKNWIRNIEEHASSDVERMILGNKCDMNDKRQVSKERGEKLAIDYGIKFLETSAKSSANVEEAFFTLARDIMTKLNRKMNDSNSAGAGGPVKITENRSKKTSFFRCSLL [RAB8B]	1.55	0.563	-0.0727	55.9 °C	54 °C	-0.16
